This data set concerns the molecule itself. In words: SEC; […] (20 mM HEPES, 150 mM NaCl pH 7.2), room temperature; […]. Background: Size exclusion chromatography separates by hydrodynamic size, large species first.

The record followed here is publication PMC13379273 (Advanced Science, 2026).

B1: Hendra virus W protein (W^HeV), wild type (natural protein)
chain: MDKLDLVNDGLDIIDFIQKNQKEIQKTYGRSSIQQPSTKDRTRAWEDFLQSTSGEHEQAEGGMPKNDGGTEGRNVEDLSSVTSSDGTIGQRVSNTRAWAEDPDDIQLDPMVTDVVYHDHGGECTGHGPSSSPERGWSYHMSGTHDGNVRAVPDTKVLPNAPKTTVPEEVREIDLIGLEDKFASAGLNPAAVPFVPKNQSTPTEEPPVIPEYYYGSGRRGDLSKSPPRGNVNLDSIKIYTSDDEDENQLEYEDEFAKSSSEVVIDTTPEDNDSINQEEVVGDPSDQGLEHPFPLGKFPEKEETPDVRRKDSLMQDSCKRGGVPKRLPMLSEEFECSGSDDPIIQELEREGSHPGGSLRLREPPQSSGNSRNQPDRQLKTGDAASPGGVQRPGTPMPKSRIMPIKKGAQTRSLNMLGRKTCLGRRVVQPGMFADYPPTKKARVLLRRMSN
Turning to B1, the binding result is “binds”.
